Values quoted from earlier work, collected in publication PMC6430685.

Molecular target: BAX (Homo sapiens) (UniProt Q07812)
Sequence (Q07812 whole entry): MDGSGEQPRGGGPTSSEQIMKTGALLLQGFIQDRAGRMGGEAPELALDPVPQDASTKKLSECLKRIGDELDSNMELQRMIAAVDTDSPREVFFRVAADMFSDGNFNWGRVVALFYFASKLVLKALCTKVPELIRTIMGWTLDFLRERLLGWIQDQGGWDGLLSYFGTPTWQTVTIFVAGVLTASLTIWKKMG

vMIA, sequence (P16778 23-487): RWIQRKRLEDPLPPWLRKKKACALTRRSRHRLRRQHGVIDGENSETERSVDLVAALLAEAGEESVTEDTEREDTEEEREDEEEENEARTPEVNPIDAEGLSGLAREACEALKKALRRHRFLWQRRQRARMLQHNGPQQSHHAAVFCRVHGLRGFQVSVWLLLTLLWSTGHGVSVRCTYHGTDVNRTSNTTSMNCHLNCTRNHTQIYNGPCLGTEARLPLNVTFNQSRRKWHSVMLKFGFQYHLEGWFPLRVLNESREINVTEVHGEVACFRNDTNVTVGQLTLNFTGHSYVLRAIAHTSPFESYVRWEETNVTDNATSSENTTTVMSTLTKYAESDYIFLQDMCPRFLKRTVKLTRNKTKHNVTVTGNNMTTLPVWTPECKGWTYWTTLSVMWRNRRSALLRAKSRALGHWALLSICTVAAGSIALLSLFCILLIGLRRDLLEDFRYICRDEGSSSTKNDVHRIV

vMIA (from UniProt P16778)
Kd: 140 nM
